Data from publication PMC5536072.

Tested on: p53 (full-length human) (Homo sapiens)
Test: AFM
Conditions: AFM on mica, 'physiological buffer conditions', binding buffer and temperature not given in the material, DNA stock in 10 mM Tris-HCl pH 7.6, 1 mM EDTA

5000 bp DNA
Kd (stated as approximately the same Kd as for 20,000 bp DNA, p53 18.9-56.6 nM): 0.328 µM

20,000 bp DNA
Kd (logistic fit of site occupancy against p53 18.9-56.6 nM, DNA 1 ng/uL): 0.328 µM
